Target: MSL2-FLAG (Drosophila) (UniProt P50534)
Experiment: co-IP

Sequence of UniProt P50534 (P50534 whole entry): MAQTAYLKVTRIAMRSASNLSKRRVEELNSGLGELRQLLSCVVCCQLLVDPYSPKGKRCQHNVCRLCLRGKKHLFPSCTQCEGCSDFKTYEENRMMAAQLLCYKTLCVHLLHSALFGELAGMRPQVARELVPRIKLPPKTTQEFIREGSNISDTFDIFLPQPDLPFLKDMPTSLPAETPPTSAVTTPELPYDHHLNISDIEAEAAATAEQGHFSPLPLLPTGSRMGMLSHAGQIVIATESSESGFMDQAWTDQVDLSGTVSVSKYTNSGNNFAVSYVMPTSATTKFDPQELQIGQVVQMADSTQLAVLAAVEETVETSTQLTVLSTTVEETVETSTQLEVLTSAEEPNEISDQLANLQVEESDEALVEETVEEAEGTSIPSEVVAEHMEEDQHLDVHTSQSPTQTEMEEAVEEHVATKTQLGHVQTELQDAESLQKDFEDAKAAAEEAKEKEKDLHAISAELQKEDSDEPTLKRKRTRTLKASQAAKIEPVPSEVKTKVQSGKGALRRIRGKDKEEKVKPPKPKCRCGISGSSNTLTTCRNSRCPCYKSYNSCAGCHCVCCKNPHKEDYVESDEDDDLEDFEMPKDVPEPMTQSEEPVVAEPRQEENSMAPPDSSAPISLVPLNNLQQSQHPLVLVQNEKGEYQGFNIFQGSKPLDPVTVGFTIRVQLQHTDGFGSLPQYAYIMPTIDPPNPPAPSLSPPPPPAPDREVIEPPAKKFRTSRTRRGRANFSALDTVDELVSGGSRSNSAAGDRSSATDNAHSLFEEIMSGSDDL

## CLAMP-ΔZF1-FLAG (from UniProt Q9V9N4 1-561) (natural protein)
  percent co-immunoprecipitated (bound fraction normalised to input): < 1%

Source: publication PMC10516644
